Source: paper PMC13280575, “The PER2:BRCA1:POU2F1(OCT-1) ternary complex represents a multi-component scaffold model for circadian gene regulation”

Molecular target: POU2F1 (OCT-1) POU DNA-binding domain, wild type (Homo sapiens, UniProt P14859 280-438)
Test: EMSA; dose-dependent, saturation at ~0.8 uM protein; EMSA: 20 mM HEPES pH 7.9, 2 mM MgCl2, 10% glycerol, 2 mM DTT, 36 ng poly(dI-dC), 20 min room temperature; 5% native gel, 0.5x TBE, 4 C
Conditions: protein: recombinant; tags: GST fusion, thrombin-cleaved when indicated (state in EMSA not explicit); label: 5'-32P; blunt

POU2F1 (OCT-1) POU DNA-binding domain, wild type, sequence (P14859 280-438): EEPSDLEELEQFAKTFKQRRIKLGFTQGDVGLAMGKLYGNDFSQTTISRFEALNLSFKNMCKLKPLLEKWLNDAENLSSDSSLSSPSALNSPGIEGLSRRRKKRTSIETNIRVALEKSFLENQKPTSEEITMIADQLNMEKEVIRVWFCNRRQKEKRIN

B1: ESR1 promoter POU2F1 element probe (-56 to -42) (dsDNA)
DNA 1: GCTATGGCCTATGCATATGAAGCCTTTATT
DNA 2: AATAAAGGCTTCATATGCATAGGCCATAGC
Does B1 bind?
Result: binds
